The source of these data is patent publication US20150353923, “Method for Identifying RNA Segments Bound by RNA-Binding Proteins or Ribonucleoprotein Complexes” (Rockefeller University, published 2015).

What all share (details): tags: N-terminal His6 (pDEST17, E. coli); label: 32P
Series [1] addresses T1, QKI (Quaking) (UniProt Q96PU8-9 Q96PU8-9:1-319).
T1 sequence: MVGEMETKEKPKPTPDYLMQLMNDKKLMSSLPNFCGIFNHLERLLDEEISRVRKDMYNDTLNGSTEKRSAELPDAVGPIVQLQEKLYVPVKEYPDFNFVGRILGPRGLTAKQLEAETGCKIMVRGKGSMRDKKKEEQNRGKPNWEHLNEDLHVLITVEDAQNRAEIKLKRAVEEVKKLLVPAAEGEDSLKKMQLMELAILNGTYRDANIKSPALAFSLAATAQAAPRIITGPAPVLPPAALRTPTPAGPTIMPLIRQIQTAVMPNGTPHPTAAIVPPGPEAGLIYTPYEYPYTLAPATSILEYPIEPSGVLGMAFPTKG
The series is described as follows: EMSA; 330 mM KCl, 10 mM MgCl2, pH 7.4, 100 ng tRNA. The protocol:
(§1) Radiolabeled RNA (1 nM) was incubated with recombinant His6-QKI protein at various concentrations and 100 ng tRNA in 20 μl of 20 mM HEPES-KOH, pH 7.4, 330 mM KCl, 10 mM MgCl2, 0.1 mM EDTA and 0.01% IGEPAL CA630 (Sigma). After addition of 6 μl loading dye (40% glycerol, bromophenol blue in binding buffer), the solution was loaded onto a native 10% acrylamide gel containing 0.5×TBE, running at 200 V for 2 h at room temperature, using 0.5×TBE as running buffer. The protein-bound RNA and the free RNA were quantified using a phosphorimager.

Series [2] addresses T1, QKI (Quaking). The series is described as follows: EMSA; binding unaffected by 4SU; 330 mM KCl, 10 mM MgCl2, tRNA. The procedure: as §1
(In EMSA bound probe runs differently from free probe, usually more slowly.)

Series [3] has as its target T1, QKI (Quaking). Description: EMSA; 4SU position has no significant effect on affinity; 330 mM KCl, 10 mM MgCl2, tRNA. The procedure:
as §1

B1: HOXD13 3'UTR QKI-site oligoribonucleotide (ssRNA)
RNA: GUAUGCCAUUAACAAAUUCAUUAACAA
Turning to B1, the binding result with QKI (Quaking) [1] was “binds”.

B2: QKI oligo 4SU at U10 (ssRNA)
RNA: GUAUGCCAUUAACAAAUUCAUUAACAA
modifications: 4-thiouridine at position 10 (position 3 of recognition element)
In the case of B2, the binding result with QKI (Quaking) [2] was “binds”.

B3: QKI oligo 4SU at U2 (ssRNA)
RNA: GUAUGCCAUUAACAAAUUCAUUAACAA
modifications: 4-thiouridine at position 2
In the case of B3, the binding result in the series with QKI (Quaking) [3] is recorded as “binds”.

B4: QKI oligo 4SU at U4 (ssRNA)
RNA: GUAUGCCAUUAACAAAUUCAUUAACAA
modifications: 4-thiouridine at position 4
For B4, the binding result with QKI (Quaking) [3] is reported as “binds”.
